# According to US7732162:
# Legend:
# H-Gln-Ala-NH2 = test system: T1, H-Gln-Ala-NH2
# T1 sequence: QA
# H-Gln-Glu-Tyr-Ala-NH2 = test system: T2, H-Gln-Glu-Tyr-Ala-NH2
# T2 sequence: QEYA
# H-Gln-Ala-Ala-NH2 = test system: T3, H-Gln-Ala-Ala-NH2
# T3 sequence: QAA
# [1] = test system: T4, H-Gln-cyclo(Nε-Lys-Arg-Pro-Ala-Gly-Phe)
# T4 sequence: QKRPAGF
# [2] = test system: T5, [Gln^5]-substance P(5-11)
# T5 sequence: QQFFGLM
# H-Gln-Gln-Tyr-Phe-NH2 = test system: T6, H-Gln-Gln-Tyr-Phe-NH2
# T6 sequence: QQYF
# H-Gln-Glu-OH = test system: T7, H-Gln-Glu-OH
# T7 sequence: QE
# H-Gln-Phe-Ala-NH2 = test system: T8, H-Gln-Phe-Ala-NH2
# T8 sequence: QFA
# [Gln^3]-glucagon(3-29) = [Gln^3]-glucagon(3-29) (UniProt P01275)
# Sequence of [Gln^3]-glucagon(3-29) (P01275 whole entry, looked up, tested part not stated): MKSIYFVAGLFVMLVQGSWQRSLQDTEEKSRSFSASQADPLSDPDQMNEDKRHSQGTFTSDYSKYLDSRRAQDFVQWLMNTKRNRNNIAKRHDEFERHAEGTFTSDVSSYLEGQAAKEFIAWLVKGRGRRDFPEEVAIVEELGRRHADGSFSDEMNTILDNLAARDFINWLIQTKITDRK
# H-Gln-Gly-OH = test system: T9, H-Gln-Gly-OH
# T9 sequence: QG
# H-Gln-Asn-Gly-Ile-NH2 = test system: T10, H-Gln-Asn-Gly-Ile-NH2
# T10 sequence: QNGI
# H-Gln-Glu-Tyr-Phe-NH2 = test system: T11, H-Gln-Glu-Tyr-Phe-NH2
# T11 sequence: QEYF
# [Gln^1]-FPP = test system: T12, [Gln^1]-FPP
# T12 sequence: QEP
# H-Gln-Trp-Ala-NH2 = test system: T13, H-Gln-Trp-Ala-NH2
# T13 sequence: QWA
# H-Gln-Glu-Ala-Ala-NH2 = test system: T14, H-Gln-Glu-Ala-Ala-NH2
# T14 sequence: QEAA
# H-Gln-Glu-Asp-Leu-NH2 = test system: T15, H-Gln-Glu-Asp-Leu-NH2
# T15 sequence: QEDL
# H-Gln-Glu-Ala-Phe-NH2 = test system: T16, H-Gln-Glu-Ala-Phe-NH2
# T16 sequence: QEAF
# H-Gln-Ala-OH = test system: T17, H-Gln-Ala-OH
# T17 sequence: QA
# [Gln^1]-Gastrin = test system: T18, [Gln^1]-Gastrin
# T18 sequence: QGPWLEEEEEAYGWMDF
# [3] = test system: T19, H-Gln-Ala-Ala-Ser-Ala-Ala-NH2
# T19 sequence: QAASAA
# H-Gln-Glu-Tyr-NH2 = test system: T20, H-Gln-Glu-Tyr-NH2
# T20 sequence: QEY
# H-Gln-Arg-Gly-Ile-NH2 = test system: T21, H-Gln-Arg-Gly-Ile-NH2
# T21 sequence: QRGI
# [Gln^1]-GnRH = test system: T22, [Gln^1]-GnRH
# T22 sequence: QHWSYGLRPG
# H-Gln-Pro-Tyr-Phe-NH2 = test system: T23, H-Gln-Pro-Tyr-Phe-NH2
# T23 sequence: QPYF
# H-Gln-Gly-Pro-OH = test system: T24, H-Gln-Gly-Pro-OH
# T24 sequence: QGP
# H-Gln-Lys-Arg-Leu-NH2 = test system: T25, H-Gln-Lys-Arg-Leu-NH2
# T25 sequence: QKRL
# H-Gln-Gln-OH = test system: T26, H-Gln-Gln-OH
# T26 sequence: QQ
# H-Gln-Arg-Tyr-Phe-NH2 = test system: T27, H-Gln-Arg-Tyr-Phe-NH2
# T27 sequence: QRYF
# H-Gln-Ser-Tyr-Phe-NH2 = test system: T28, H-Gln-Ser-Tyr-Phe-NH2
# T28 sequence: QSYF
# H-Gln-His-Tyr-Phe-NH2 = test system: T29, H-Gln-His-Tyr-Phe-NH2
# T29 sequence: QHYF
# [4] = test system: T30, H-βhomoGln-Phe-Lys-Arg-Leu-Ala-NH2
# T30 sequence: QFKRLA
# [5] = test system: T31, H-Gln-Ala-Ala-Ala-Ala-NH2
# T31 sequence: QAAAA
# H-Gln-Tyr-Ala-OH = test system: T32, H-Gln-Tyr-Ala-OH
# T32 sequence: QYA
substance,measurement,setting,value
QC from papaya latex (Carica papaya glutaminyl cyclase),KM,H-Gln-Ala-NH2,212 µM
same,KM,H-Gln-Glu-Tyr-Ala-NH2,113 µM
same,KM,[Gln^1]-Neurotensin,40 µM
same,KM,H-Gln-Ala-Ala-NH2,164 µM
same,KM,[1],"KM-values of 240±14 µM and 133±5 µM for human and papaya QC, respectively"
same,substrate conversion (kcat/KM column),[2],*
same,KM,H-Gln-Gln-Tyr-Phe-NH2,45 µM
same,KM,H-Gln-Glu-OH,106 µM
same,"KM (0.05 M Tricine-NaOH, pH 8.0)",H-Gln-Glu-OH,0.098 mM
same,"KM (0.05 M Tricine-NaOH, pH 8.0, 0.5 M KCl)",H-Gln-Glu-OH,0.094 mM
same,KM,H-Gln-Phe-Ala-NH2,111 µM
same,substrate conversion (kcat/KM column),[Gln^3]-glucagon(3-29),*
same,KM,H-Gln-Gly-OH,641 µM
same,KM,H-Gln-Asn-Gly-Ile-NH2,153 µM
same,KM,H-Gln-Glu-Tyr-Phe-NH2,100 µM
same,KM,[Gln^1]-FPP,232 µM
same,KM,H-Gln-Trp-Ala-NH2,78 µM
same,"KM (0.05 M Tricine-NaOH, pH 8.0)",H-Gln-Trp-Ala-NH2,0.079 mM
same,"KM (0.05 M Tricine-NaOH, pH 8.0, 0.5 M KCl)",H-Gln-Trp-Ala-NH2,0.072 mM
same,KM,H-Gln-Glu-Ala-Ala-NH2,102 µM
same,KM,H-Gln-Glu-Asp-Leu-NH2,107 µM
same,"KM (0.05 M Tricine-NaOH, pH 8.0)",H-Gln-Glu-Asp-Leu-NH2,0.109 mM
same,"KM (0.05 M Tricine-NaOH, pH 8.0, 0.5 M KCl)",H-Gln-Glu-Asp-Leu-NH2,0.094 mM
same,KM,H-Gln-Glu-Ala-Phe-NH2,81 µM
same,KM,H-Gln-Ala-OH,158 µM
same,"KM (0.05 M Tricine-NaOH, pH 8.0)",H-Gln-Ala-OH,0.137 mM
same,"KM (0.05 M Tricine-NaOH, pH 8.0, 0.5 M KCl)",H-Gln-Ala-OH,0.143 mM
same,KM,[Gln^1]-Gastrin,34 µM
same,KM,[3],216 µM
same,KM,H-Gln-Glu-Tyr-NH2,103 µM
same,KM,H-Gln-Arg-Gly-Ile-NH2,123 µM
same,"KM (0.05 M Tricine-NaOH, pH 8.0)",H-Gln-Arg-Gly-Ile-NH2,0.106 mM
same,"KM (0.05 M Tricine-NaOH, pH 8.0, 0.5 M KCl)",H-Gln-Arg-Gly-Ile-NH2,0.065 mM
same,KM,[Gln^1]-GnRH,169 µM
same,KM,H-Gln-Pro-Tyr-Phe-NH2,149 µM
same,KM,H-Gln-Gly-Pro-OH,333 µM
same,KM,H-Gln-Lys-Arg-Leu-NH2,118 µM
same,"KM (0.05 M Tricine-NaOH, pH 8.0)",H-Gln-Lys-Arg-Leu-NH2,0.102 mM
same,"KM (0.05 M Tricine-NaOH, pH 8.0, 0.5 M KCl)",H-Gln-Lys-Arg-Leu-NH2,0.053 mM
same,KM,H-Gln-Gln-OH,44 µM
same,KM,H-Gln-Arg-Tyr-Phe-NH2,124 µM
same,KM,H-Gln-Ser-Tyr-Phe-NH2,135 µM
same,KM,H-Gln-His-Tyr-Phe-NH2,92 µM
same,KM,[4],KM=3.1±0.3 mM
same,KM,[5],197 µM
same,KM,H-Gln-Tyr-Ala-OH,63 µM
